From patent publication US7384761 (RIGEL PHARMACEUTICALS, dated 2008) come the findings set out here.

One series addresses T1, Rad9.
T1 chain: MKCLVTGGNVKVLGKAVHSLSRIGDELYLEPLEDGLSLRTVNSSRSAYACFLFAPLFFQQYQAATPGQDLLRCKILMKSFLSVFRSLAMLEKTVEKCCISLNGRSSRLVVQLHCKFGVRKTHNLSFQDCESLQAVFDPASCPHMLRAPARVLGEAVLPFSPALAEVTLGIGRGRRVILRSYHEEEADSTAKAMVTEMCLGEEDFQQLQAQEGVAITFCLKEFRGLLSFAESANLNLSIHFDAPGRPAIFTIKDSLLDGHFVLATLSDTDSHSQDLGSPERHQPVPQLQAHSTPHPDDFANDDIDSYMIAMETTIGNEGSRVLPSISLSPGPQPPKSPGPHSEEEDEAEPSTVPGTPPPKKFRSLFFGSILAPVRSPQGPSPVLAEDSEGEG

For series [1], the target named is T2, protein phosphatase 5 (PP5) (Homo sapiens (Human), UniProt P53041 1-499, limits assumed).
T2 construct: Wildtype PP5; also called protein phosphatase type 5; cell cycle protein
T2 sequence: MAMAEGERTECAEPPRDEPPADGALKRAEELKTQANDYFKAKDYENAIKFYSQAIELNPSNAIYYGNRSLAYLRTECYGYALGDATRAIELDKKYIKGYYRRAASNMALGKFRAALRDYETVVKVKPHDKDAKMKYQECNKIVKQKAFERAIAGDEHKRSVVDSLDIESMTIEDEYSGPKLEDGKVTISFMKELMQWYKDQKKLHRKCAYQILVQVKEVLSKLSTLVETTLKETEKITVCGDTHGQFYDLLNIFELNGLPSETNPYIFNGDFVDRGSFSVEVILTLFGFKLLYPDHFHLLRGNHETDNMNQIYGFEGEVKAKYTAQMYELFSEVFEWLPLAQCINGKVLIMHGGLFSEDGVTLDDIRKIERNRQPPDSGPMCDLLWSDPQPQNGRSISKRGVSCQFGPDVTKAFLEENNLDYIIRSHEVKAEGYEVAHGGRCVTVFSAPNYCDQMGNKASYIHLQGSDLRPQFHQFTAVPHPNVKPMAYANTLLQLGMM
As to the kind of experiment: coimmunoprecipitation, gel.

B1: protein phosphatase 5 (PP5) (protein)
chain: MAMAEGERTECAEPPRDEPPADGALKRAEELKTQANDYFKAKDYENAIKFYSQAIELNPSNAIYYGNRSLAYLRTECYGYALGDATRAIELDKKYIKGYYRRAASNMALGKFRAALRDYETVVKVKPHDKDAKMKYQECNKIVKQKAFERAIAGDEHKRSVVDSLDIESMTIEDEYSGPKLEDGKVTISFMKELMQWYKDQKKLHRKCAYQILVQVKEVLSKLSTLVETTLKETEKITVCGDTHGQFYDLLNIFELNGLPSETNPYIFNGDFVDRGSFSVEVILTLFGFKLLYPDHFHLLRGNHETDNMNQIYGFEGEVKAKYTAQMYELFSEVFEWLPLAQCINGKVLIMHGGLFSEDGVTLDDIRKIERNRQPPDSGPMCDLLWSDPQPQNGRSISKRGVSCQFGPDVTKAFLEENNLDYIIRSHEVKAEGYEVAHGGRCVTVFSAPNYCDQMGNKASYIHLQGSDLRPQFHQFTAVPHPNVKPMAYANTLLQLGMM
Consider B1, for which, in the series with Rad9, the “dephosphorylation of Rad9” value was “cotransfection of PP5 with Rad9 in HeLa cells leads to dephosphorylation of Rad9 which is dependent on phophatase activity of PP5” and the “dephosphorylation of Rad9 in vitro” value is “PP5 dephosphorylates Rad9 directly in vitro”.

B2: Rad9 (other)
chain: MKCLVTGGNVKVLGKAVHSLSRIGDELYLEPLEDGLSLRTVNSSRSAYACFLFAPLFFQQYQAATPGQDLLRCKILMKSFLSVFRSLAMLEKTVEKCCISLNGRSSRLVVQLHCKFGVRKTHNLSFQDCESLQAVFDPASCPHMLRAPARVLGEAVLPFSPALAEVTLGIGRGRRVILRSYHEEEADSTAKAMVTEMCLGEEDFQQLQAQEGVAITFCLKEFRGLLSFAESANLNLSIHFDAPGRPAIFTIKDSLLDGHFVLATLSDTDSHSQDLGSPERHQPVPQLQAHSTPHPDDFANDDIDSYMIAMETTIGNEGSRVLPSISLSPGPQPPKSPGPHSEEEDEAEPSTVPGTPPPKKFRSLFFGSILAPVRSPQGPSPVLAEDSEGEG
notes: also called human Rad9
B2: the binding result in series [1] is given as “binds”.
